This note sets out measurements from patent US10428342B2, “P-coumaroyl-CoA:monolignol transferase” (Wisconsin Alumni Research Foundation, priority 2011, dated 2019).

“Also recorded” adds a separate entry of the source.

One data set deals with T1, OsPMT (Oryza sativa subsp. japonica, UniProt Q5JNT2).
T1 construct: 6xHis (N); made in house; host or cells: E. coli BL21
T1 sequence (Q5JNT2 1-439): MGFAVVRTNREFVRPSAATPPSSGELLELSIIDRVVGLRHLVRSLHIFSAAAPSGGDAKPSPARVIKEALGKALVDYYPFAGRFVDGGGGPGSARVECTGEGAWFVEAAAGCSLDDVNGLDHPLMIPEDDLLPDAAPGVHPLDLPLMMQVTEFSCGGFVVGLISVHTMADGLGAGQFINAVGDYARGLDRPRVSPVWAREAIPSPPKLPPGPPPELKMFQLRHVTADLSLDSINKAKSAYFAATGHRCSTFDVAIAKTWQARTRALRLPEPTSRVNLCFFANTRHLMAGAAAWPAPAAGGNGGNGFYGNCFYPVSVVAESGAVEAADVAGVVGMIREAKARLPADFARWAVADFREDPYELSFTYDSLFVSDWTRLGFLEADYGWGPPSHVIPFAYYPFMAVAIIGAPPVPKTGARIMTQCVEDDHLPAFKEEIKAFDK
In words: OsPMT kinetic assay (CoASH release detected with DTNB at A412). The following applies: for Substrate quality as acyl donor for OsPMT: tested acyl donors, in words. Type of data set: biochemical. On the procedure:
(§1) Kinetics—Kinetic analyses were performed using an assay modified from Santoro et al. (Anal. Biochem. 354: 70-77 (2006)). The standard 100 μL reaction mixture contained 50 mM sodium phosphate pH 6, 2 mM 5,5′-dithiobis-(2-nitrobenzoic acid) (DTNB), 0.01-1 mM CoA thioester substrate, and 0.005-1.0 mM monolignol alcohol substrate and initiated by adding 100 ng of purified OsPMT protein in 1×BSA (NEB). The CoA thioester substrates included p-coumaroyl-CoA 2a and caffeoyl-CoA 2b, and the monolignol substrates included sinapyl alcohol 1S and p-coumaryl alcohol 1H. Enzyme activity was measured as an increase in CoASH, detected with DTNB at A412, which is released as a result of monolignol conjugate synthesis (id.). The absorbance was measured every three min. for 40 min on a Spectramax Plus microplate reader using Softmax Pro 5.3 (Molecular Devices). The reactions were stopped by adding hydrochloric acid to a concentration of 100 mM, and then solubilized by adding methanol to 50%. Aliquots of 10 μL from each assay were analyzed via UPLC to verify product production. A standard curve was created for each CoA thioester from triplicate assays of five concentrations from 50 nM to 1 mM of coenzyme-A. Each reaction contained the same buffer and DTNB concentrations as the kinetic assays, along with 0.5 mM of a CoA thioester (p-coumaroyl-CoA 2a, caffeoyl-CoA 2b, or feruloyl-CoA 2c). The equation derived from fitting this standard curve was used to calculate the quantity (moles) of product synthesized in the assay. Kinetic parameters, Vmax and Km, were calculated using a nonlinear regression by entering the reaction rate and substrate concentration into the program R64, version 2.12.0 (Team, R. D. C., R: A language and environment for statistical computing, R Foundation for Statistical Computing, Vienna, Austria (2010).

In data set [1] the test system is feruloyl-CoA:monolignol transferase (FMT). Kind of data set: FMT enzymatic assay (UPLC detection of product). Type of data set: biochemical, Angelica sinensis. To be noted: for Product formed by FMT from CoA thioester: CoA thioester as acyl donor, coniferyl alcohol as acceptor; for FMT activity with monolignol: monolignol as acyl acceptor, feruloyl-CoA as donor. On the procedure: The FMT activity assay contained 100 mM MOPS pH 6.8, 1 mM dithiothreitol (DTT), 1 mM feruloyl-CoA, 1 mM coniferyl alcohol, 3.9 μg of purified FMT protein and deionized water to a volume of 50 μL. After a 30-minute incubation, 1 μL of 10 M hydrochloric acid was added to stop the reaction. Because the product synthesized in the reaction, coniferyl ferulate (CAFA), is insoluble, 50 μL of methanol was added to solubilize the CAFA. Prior to UPLC, protein and insoluble material were removed by filtering through an Amicon Ultracel 10K membrane filter (Millipore). The flow-through was analyzed using an Acquity Ultra Performance LC with an Acquity UPLC BEH C18 1.7 μm 2.1×100 mm column and the Acquity Console and Empower 2 Software, all from Waters Corporation. The solvents used in this method were solvent A, 0.1% trifluoroacetic acid, and solvent B, 100% acetonitrile. Samples were analyzed using the following gradient conditions, 13% B, for 5 minutes, 1 minute linear gradient to 42% B, held for 4 minutes, 1 minute linear gradient to 100% B, held for 1 minutes and 3 minutes at 13% B with a flow rate of 0.3 ml/minute. This method was then used to analyze a 10 μL injection of each assay reaction; standards for each of the substrates along with chemically synthesized CAFA were used to determine retention times for each compound. Purified recombinant enzyme was assayed for FMT activity using a reaction mixture containing 2 mM coniferyl alcohol, […], 100 mM HEPES pH 7.4 and 1 mM DTT. The second most abundant BAHD acyltransferase gene when incubated with Coniferyl alcohol and feruloyl-CoA produced a compound with the retention time of authentic coniferyl ferulate (CAFA) (FIG. 2). […] The addition of methanol to 50% after stopping the enzyme with acid was required to analyze the product by UPLC. The insolubility of the product made partial purification easy as the product was separated from the substrates by centrifugation.

Data set [2] is described as follows: Solubility observed in aqueous enzyme assay mixtures. The data set is classed as physicochemical. The following applies: aqueous assay mixture, in words. As for the experimental part: The FMT activity assay contained 100 mM MOPS pH 6.8, 1 mM dithiothreitol (DTT), 1 mM feruloyl-CoA, 1 mM coniferyl alcohol, 3.9 μg of purified FMT protein and deionized water to a volume of 50 μL. After a 30-minute incubation, 1 μL of 10 M hydrochloric acid was added to stop the reaction. Because the product synthesized in the reaction, coniferyl ferulate (CAFA), is insoluble, 50 μL of methanol was added to solubilize the CAFA. Prior to UPLC, protein and insoluble material were removed by filtering through an Amicon Ultracel 10K membrane filter (Millipore). The flow-through was analyzed using an Acquity Ultra Performance LC with an Acquity UPLC BEH C18 1.7 μm 2.1×100 mm column and the Acquity Console and Empower 2 Software, all from Waters Corporation. The solvents used in this method were solvent A, 0.1% trifluoroacetic acid, and solvent B, 100% acetonitrile. Samples were analyzed using the following gradient conditions, 13% B, for 5 minutes, 1 minute linear gradient to 42% B, held for 4 minutes, 1 minute linear gradient to 100% B, held for 1 minutes and 3 minutes at 13% B with a flow rate of 0.3 ml/minute. This method was then used to analyze a 10 μL injection of each assay reaction; standards for each of the substrates along with chemically synthesized CAFA were used to determine retention times for each compound. […]

Substrate in data set [3]: CC(C)(COP(=O)(O)OP(=O)(O)OC[C@H]1O[C@@H](n2cnc3c(N)ncnc32)[C@H](O)[C@@H]1OP(=O)(O)O)[C@@H](O)C(=O)NCCC(=O)NCCSC(=O)/C=C/c1ccc(O)c(O)c1
Kind of data set: OsPMT kinetic assay (CoASH release detected with DTNB at A412). Type of data set: biochemical, Oryza sativa. To be noted: other: varying substrate, pH 6.0. As for the experimental part:
as §1

Substrate in data set [4]: CC(C)(COP(=O)(O)OP(=O)(O)OC[C@H]1O[C@@H](n2cnc3c(N)ncnc32)[C@H](O)[C@@H]1OP(=O)(O)O)[C@@H](O)C(=O)NCCC(=O)NCCSC(=O)/C=C/c1ccc(O)cc1
The description is as above. To be noted: other: varying substrate, pH 6.0. The data set is classed as biochemical, Oryza sativa. On the procedure:
as §1

Substrate in data set [5]: COc1cc(/C=C/CO)cc(OC)c1O
The description is as above. The data set is classed as biochemical, Oryza sativa. The following applies: other: varying substrate, pH 6.0. As for the experimental part:
as §1

Substrate in data set [6]: OC/C=C/c1ccc(O)cc1
Described as above. Type of data set: biochemical, Oryza sativa. To be noted: other: varying substrate, pH 6.0. As for the experimental part: as §1

[7] abbreviates: saturating substrate p-coumaryl alcohol 1H.
The mark [8] stands for this setting: saturating substrate sinapyl alcohol 1S.
Setting [9] is: saturating substrate caffeoyl-CoA 2b.
Setting [10] is: saturating substrate p-coumaroyl-CoA 2a.

As to `CC(C)(COP(=O)(O)OP(=O)(O)OC[C@H]1O[C@@H](n2cnc3c(N)ncnc32)[C@H](O)[C@@H]1OP(=O)(O)O)[C@@H](O)C(=O)NCCC(=O)NCCSC(=O)/C=C/c1ccc(O)c(O)c1` [caffeoyl-CoA 2b, caffeoyl-CoA], the “Substrate quality as acyl donor for OsPMT” value (“Substrate quality” for short) at OsPMT is “good substrates”. Moreover, the “Product formed by FMT from CoA thioester” value in data set [1] is listed as “very little product”.
As to `COc1cc(/C=C/CO)ccc1O` [coniferyl alcohol 1G, coniferyl alcohol], the “FMT activity with monolignol” value in data set [1] is given as “active”.
In the case of `COc1cc(/C=C/C(=O)SCCNC(=O)CCNC(=O)[C@H](O)C(C)(C)COP(=O)(O)OP(=O)(O)OC[C@H]2O[C@@H](n3cnc4c(N)ncnc43)[C@H](O)[C@@H]2OP(=O)(O)O)ccc1O` [feruloyl-CoA 2c, feruloyl-CoA], the “Substrate quality” value at OsPMT was “poor substrate”. The “Product formed by FMT from CoA thioester” value in data set [1] is on record as “substantial product”.
As to `OC/C=C/c1ccc(O)cc1` [p-coumaryl alcohol 1H, p-coumaryl alcohol], at OsPMT (acyl acceptor compared with sinapyl alcohol 1S), the “Synthetic rate relative to sinapyl alcohol 1S” value worked out at 6 times. For the same molecule, in data set [1], the “FMT activity with monolignol” value was “active”.
As for `CC(C)(COP(=O)(O)OP(=O)(O)OC[C@H]1O[C@@H](n2cnc3c(N)ncnc32)[C@H](O)[C@@H]1OP(=O)(O)O)[C@@H](O)C(=O)NCCC(=O)NCCSC(=O)/C=C/c1ccc(O)cc1` [p-coumaroyl-CoA 2a, p-coumaroyl-CoA], the “Maximum reaction rate relative to caffeoyl-CoA 2b” value on OsPMT (acyl donor compared with caffeoyl-CoA 2b) is “at least 5 fold”. Also, the “Substrate quality” value at OsPMT was “good substrates”. For the same molecule, in data set [1], the “Product formed by FMT from CoA thioester” value is “very little product”.
As for `OC/C=C/c1ccc(O)c(O)c1` [caffeyl alcohol 1C, caffeyl alcohol], the Solubility result in data set [2] is reported as “limited solubility”.
As to `COc1cc(/C=C/COC(=O)/C=C/c2ccc(O)c(OC)c2)ccc1O` [coniferyl ferulate], the Solubility entry in data set [2] is “mostly insoluble in water; also recorded: partially insoluble”.
With `COc1cc(/C=C/CO)cc(OC)c1O` [sinapyl alcohol 1S, sinapyl alcohol], in data set [1], the “FMT activity with monolignol” value was “active”.

B1: OsPMT (Oryza sativa Japonica Group) (protein)
chain: T1 sequence (Q5JNT2 1-439)
notes: 6xHis (N); made in house; host or cells: E. coli BL21
Regarding B1, the Km worked out at 92 ± 11 µM in data set [3] (setting [7]); 75 ± 5 µM in data set [3] (setting [8]); 281 ± 62 µM in data set [4] (setting [7]); 105 ± 12 µM in data set [4] (setting [8]); 15 ± 2 µM in data set [5] (setting [9]); 35 ± 5 µM in data set [5] (setting [10]). Besides, the results for the Km in data set [6] (setting [9]) and in data set [6] (setting [10]) were 27 ± 6 µM and 141 ± 14 µM, respectively. Besides, the maximum rate (Vmax) in data set [3] (setting [7]) was 0.515 µmol/min/mg; in data set [3] (setting [8]), 0.45 µmol/min/mg; in data set [4] (setting [7]), 3.69 µmol/min/mg; in data set [4] (setting [8]), 0.75 µmol/min/mg; in data set [5] (setting [9]), 0.486 µmol/min/mg; in data set [5] (setting [10]), 0.648 µmol/min/mg. Also, the Vmax in data set [6] (setting [9]) is 0.355 µmol/min/mg; in data set [6] (setting [10]) it was 3.25 µmol/min/mg. Also, the kcat was determined as 0.41 s⁻¹ in data set [3] (setting [7]); 0.36 s⁻¹ in data set [3] (setting [8]); 2.93 s⁻¹ in data set [4] (setting [7]); 0.6 s⁻¹ in data set [4] (setting [8]); 0.39 s⁻¹ in data set [5] (setting [9]); 0.51 s⁻¹ in data set [5] (setting [10]). The kcat amounted to 0.28 s⁻¹ in data set [6] (setting [9]) and 2.58 s⁻¹ in data set [6] (setting [10]).
